This experiment addresses T1, Human PCSK9 form a' (human, UniProt Q8NBP7 31-692).
T1 construct: also called PCSK9 a'
Nature of the experiment: SPR (ProteOn XPR36), antibody captured on anti-human IgG, PCSK9 as analyte, 25 C, 1:1 model.

We go through 2 molecules from patent US20160229907A1 (published 2016).

B1: Evolocumab (antibody, V domains shown)
VH: QVQLVQSGAEVKKPGASVKVSCKASGYTLTSYGISWVRQAPGQGLEWMGWVSFYNGNTNYAQKLQGRGTMTTDPSTSTAYMELRSLRSDDTAVYYCARGYGMDVWGQGTTVTVSS
VL: QSALTQPASVSGSPGQSITISCTGTSSDVGGYNSVSWYQQHPGKAPKLMIYEVSNRPSGVSNRFSGSKSGNTASLTISGLQAEDEADYYCNSYTSTSMVFGGGTKLTVL
Take B1: the dissociation constant Kd worked out at 0.185 nM, the koff is 2.29e-05 s⁻¹ and the kon is 124000 M⁻¹ s⁻¹.

B2: Antibody 316P (antibody, V domains shown)
VH: EVQLVESGGGLVQPGGSLRLSCAASGFTFNNYAMNWVRQAPGKGLDWVSTISGSGGTTNYADSVKGRFIISRDSSKHTLYLQMNSLRAEDTAVYYCAKDSNWGNFDLWGRGTLVTVSS
VL: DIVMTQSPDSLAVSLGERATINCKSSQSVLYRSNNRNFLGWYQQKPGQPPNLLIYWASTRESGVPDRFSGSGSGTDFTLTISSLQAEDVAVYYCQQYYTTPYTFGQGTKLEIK
Molecule B2 yielded a dissociation constant (Kd) of 0.181 nM, an off-rate (koff) of 0.000272 s⁻¹ and an on-rate constant (kon) of 1.5e+06 M⁻¹ s⁻¹.

As usually defined, the Kd is the concentration at which binding is half-saturated. Read a low Kd as higher affinity. Usually koff stands for the first-order rate constant of dissociation. Usually kon stands for the second-order rate constant of association. A lower kon goes with slow association.
